Assay results published in US20070117924A1, “Biologically active material conjugated with biocompatible polymer with 1:1 complex, preparation method thereof and pharmaceutical composition comprising the same” (priority 2003, published 2007).

B1: mPEG(20000)-Hz-G-CSF (conjugate, UniProt P09919 31-207, looked up)
Granulocyte …: TPLGPASSLPQSFLLKCLEQVRKIQGDGAALQEKLVSECATYKLCHPEELVLLGHSLGIPWAPLSSCPSQALQLAGCLSQLHSGLFLYQGLLQALEGISPELGPTLDTLQLDVADFATTIWQQMEELGMAPALQPTQGAMPAFASAFQRRAGGVLVASHLQSFLEVSYRVLRHLAQP
modifications: mPEG 20 kDa via hydrazine linker

Legend:
[1] = tested on: UMR-10^6 cell line; test: In vitro biological activity of mPEG-PTH conjugate: c-AMP synthesized in UMR-10^6 cell line; format: cell-based; settings: concentration of 10-8 mole, FIG. 19
[2] = Half-life of mPEG-Hz-PTH in rats (cAMP in plasma); settings: male rats, 100 ug/kg intravenous; FIG. 20
[3] = tested on: White Blood Cell (WBC) count; test: White blood cell (WBC) count of PEG-G-CSF-treated rats; format: in vivo, Sprague-Dawley rats; settings: 100 ug/kg into tail vein, blood 0-96 hrs, FIG. 9
[4] = Half life of PEG-G-CSF conjugate in rats (serum activity by cell XTT assay); settings: 100 ug/kg intravenous, FIG. 8

Molecule | activity retained, % of unreacted PTH (c-AMP synthesized) [1] [%] | detection after administration (not detected) [2] | time after administration at which detected [2] [h] | WBC counts compared with native G-CSF and Neulasta [3] | half-life compared to native G-CSF [4]
mPEG(5000)-Hz-PTH | 40 | not detected after 15 mins |  |  | 
unreacted PTH [reference compound] |  | not detected after 15 mins |  |  | 
mPEG(20000)-Hz-PTH | 20 |  | 2 |  | 
mPEG(12000)-Hz-PTH | 30 |  | 1 |  | 
B1 |  |  |  | higher WBC counts than both native G-CSF and Neulasta™ | much longer half-life compared to native G-CSF
